Experimental data from PMC7793260, “MreC and MreD balance the interaction between the elongasome proteins PBP2 and RodA” (PLoS Genetics, 2020).

Biological target: T1, mKO-^MalF37PBP2 (E. coli, UniProt P02916 1-37; P0AD65 46-633)
T1 construct: MalF of E. coli, the first 37 residues (cytoplasmic N-terminus and transmembrane helix), amplified from the MG1655 genome; PBP2 of E. coli excluding the first 45 residues (NT and TMH removed, periplasmic domain kept); also called PBP2 with the NT and TMH of MalF; source: E. coli LMC500, expressed from plasmid (15 uM IPTG), in fixed cells; not shown: mKO, N-terminal, kept
T1 chain (looked up): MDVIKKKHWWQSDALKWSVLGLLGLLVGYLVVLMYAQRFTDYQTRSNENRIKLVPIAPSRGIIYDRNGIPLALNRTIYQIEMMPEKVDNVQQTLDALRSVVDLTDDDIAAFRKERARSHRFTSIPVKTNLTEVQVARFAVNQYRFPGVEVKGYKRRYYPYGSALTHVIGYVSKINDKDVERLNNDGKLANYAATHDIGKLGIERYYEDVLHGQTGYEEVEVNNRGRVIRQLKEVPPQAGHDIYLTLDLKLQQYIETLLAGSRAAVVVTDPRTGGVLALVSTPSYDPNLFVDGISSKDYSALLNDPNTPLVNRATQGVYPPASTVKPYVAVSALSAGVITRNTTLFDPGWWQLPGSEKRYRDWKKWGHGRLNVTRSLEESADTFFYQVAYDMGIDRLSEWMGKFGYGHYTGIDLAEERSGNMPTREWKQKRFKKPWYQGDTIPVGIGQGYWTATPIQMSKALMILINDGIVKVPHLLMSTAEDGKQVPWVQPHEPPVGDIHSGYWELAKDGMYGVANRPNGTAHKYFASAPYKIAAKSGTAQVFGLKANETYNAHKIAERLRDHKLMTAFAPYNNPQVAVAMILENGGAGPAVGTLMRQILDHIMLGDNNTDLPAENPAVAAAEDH
Assay: FRET or BRET; two-plasmid spectral FRET in E. coli LMC500 cells; mCherry fusion as acceptor, mKO fusion as donor; Gb4 medium, steady state at 28 C, 15 uM IPTG for two mass doublings, FAGA-fixed; acceptor FRET efficiency (EfA) by spectral unmixing
Details: partners not purified

B1: RodA (wild type), fused to mCherry or to mKO (enzyme, E. coli, UniProt P0ABG7 1-370, looked up)
chain: MTDNPNKKTFWDKVHLDPTMLLILLALLVYSALVIWSASGQDIGMMERKIGQIAMGLVIMVVMAQIPPRVYEGWAPYLYIICIILLVAVDAFGAISKGAQRWLDLGIVRFQPSEIAKIAVPLMVARFINRDVCPPSLKNTGIALVLIFMPTLLVAAQPDLGTSILVALSGLFVLFLSGLSWRLIGVAVVLVAAFIPILWFFLMHDYQRQRVMMLLDPESDPLGAGYHIIQSKIAIGSGGLRGKGWLHGTQSQLEFLPERHTDFIFAVLAEELGLVGILILLALYILLIMRGLWIAARAQTTFGRVMAGGLMLILFVYVFVNIGMVSGILPVVGVPLPLVSYGGSALIVLMAGFGIVMSIHTHRKMLSKSV
notes: RodA, peptidoglycan glycosyltransferase of the E. coli elongasome; wild-type rodA gene; mCh-RodA in all others; also called mCh-RodA; mKO-RodA; source: E. coli LMC500, expressed from plasmid (15 uM IPTG), in fixed cells; not shown: mCherry (acceptor construct, pSAV047-RodA) or mKO (donor construct, pXL56), N-terminal, kept
In the case of B1, the “EfA (acceptor FRET efficiency)” value is reported as 8.2%.
